Source: paper PMC12489471, “A multi-dentate, cooperative interaction between endo- and exo-ribonucleases within the bacterial RNA degradosome” (Nucleic Acids Research, 2025)

What was measured:
full-length PNPase = assay: Cryo-EM of full-length PNPase:RNase E 960–1061; format: binding, E. coli
PNPase core = assay: Cryo-EM of E. coli PNPase core:RNase E complex; format: binding; settings: 20 mM Tris–HCl pH 8.0, 25 mM MgCl2, 150 mM KCl, 1 mM TCEP
Experimental: The PNPase core encoding sequence from E. coli (aa 1–552), Salmonella enterica serovar Typhimurium (UniProt: Q8ZLT3) (aa 1–552), or Pseudomonas aeruginosa (strain PAO1, UniProt: Q9HV59) (aa 1–553) was amplified using corresponding genomic DNA as a template and cloned into pExp-Mxe-CHis expression vector. The protein of interest, produced as a fusion with C-terminal 8×His-tagged Mycobacterium xenopi GyrA intein, was expressed in Evo21(DE3) cells at 18°C overnight following induction with 0.4 mM IPTG. […] After cleavage, the protein buffer was exchanged using HiPrep 26/10 desalting column (Cytiva), and the protein solution was reapplied to Ni-NTA resin to remove His-tagged intein and uncleaved material. […]
Purified PNPase core and RNE-muGFP-CHis proteins were mixed in 1:2 ratio and their complex were separated on the Superdex 200 Increase 10/300 GL column (Cytiva) equilibrated with cryo-EM Buffer (20 mM Tris–HCl, pH 8.0, 25 mM MgCl2, 150 mM KCl, 1 mM TCEP). […] The samples were mixed with CHAPSO (3-([3-cholamidopropyl]dimethylammonio)-2-hydroxy-1-propanesulfonate) at a final concentration of 8 mM before being applied onto R2/2 Au Ultrafoil grids (Quantifoil) that had been pre-treated by glow-discharge (PELCO easiGLOW: 60 s, 25 mA, 0.39 mBar). […]

B1: RNase E 960 – 1061 wildtype: wildtype RNase E peptide 960–1061 (peptide)
chain: VVETAEVVVAEPEVVAQPAAPVVAEVAAEVETVAAVEPEVTVEHNHATAPMTRAPAPEYVPEAPRHSDWQRPTFAFEGKGAAGGHTATHHASAAPARPQPVE
modifications: left off: His6, N-terminal, cleaved | MBP, N-terminal, cleaved | intein, C-terminal, cleaved | choline-binding domain, C-terminal, cleaved
For B1, the “location of extra density / binding on PNPase” value (full-length PNPase; cryo-EM, PNPase:RNase E 960–1061) was “bridging two b-strands”, the “interaction with KH and S1 domains of PNPase” value (full-length PNPase; preliminary cryo-EM map, full-length PNPase) was “does not interact with the KH and S1 domains of PNPase” and the “binding mode / stoichiometry with E. coli PNPase core” value (PNPase core) was “interacting with two protomers of the trimeric PNPase core”.
